According to the supplement of paper PMC9170038:

Columns and labels:
MS2 coat protein [1] = test: apparent KD of MS2 coat protein, switch ON state; designed switch direction (-1 OFF switch, 1 ON switch): -1; higher = weaker reporter binding; details: FMN input: 0 or 200 uM; Eterna round: R93 (includes R88 designs)
Method in brief: (§1)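 Designed RNA switches were transcribed on-chip from Illumina sequencing clusters. SNAP-549-labelled MS2 coat protein was titrated onto them in twofold steps from 0.7 or 1.5 nM to 3 µM in 100 mM Tris-HCl pH 7.5, 80 mM KCl, 4 mM MgCl2, either without or with constant ligand. Apparent KD reflects the per-design median of normalised cluster binding-curve fits.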

MS2 coat protein [2] = test: apparent KD of MS2 coat protein, switch OFF state (with FMN for OFF switches, without FMN for ON switches); designed switch direction (-1 OFF switch, 1 ON switch): -1; higher = weaker reporter binding; details: FMN input: 0 or 200 uM; Eterna round: R93 (includes R88 designs)
Method in brief: as §1

Row | Sequence | apparent KD of MS2 coat protein (MS2 coat protein [1]) [nM] | apparent KD of MS2 coat protein (MS2 coat protein [2]) [nM]
1 | AAAUAGCAAGGAUAUACAUGAGGAUCACCCAUGUAAGGAUGGAAAGUAAUAGAAGAAAGUAGAAGGUGCAAAUA [Ex 3 Tesla 4] | 31.7 | 36
2 | AAAUAGCAAGGAUAUACAUGAGGAUCACCCAUGUGAAAAAGGUAUGGAAUAGAAUAGAGUAGAAGGUGCAAAUA [Mod of Ex 3 Tesla 8 - Jieux - Exclusion 3] | 24.9 | 35.7
3 | AAAUAGCAAGGAUAUACAUGAGGAUCACCCAUGUGAAAAUGAUACGUAAUAGAAUAGAGUAGAAGGUGCAAAUA [Ex 3 Tesla 7] | 25.1 | 28.7
4 | AAAUAGUUAGGAUAUACAUGAGGAUCACCCAUGUGCACGUAUGGAGAAUAUGGUAAUGGUAGAAGGGACUAAAA [EX2 Malc#21] | 44.5 | 76.5
5 | AAAUGAUGAGGAUAUACAUGAGGAUCACCCAUGUGUAAAAAUAAAUACACAAAAGAAAGUAGAAGGCAUCAAAA [Ex 3 May 12] | 22.7 | 99
6 | AAAUGCUGAGGAUAUACAUGAGGAUCACCCAUGUAAAAUAAAUAAUAGGUGUAAACGUGUAGAAGGCAGCAUAA [Exclusion 3.14a (FMN+ favored )] | 62.6 | 27.5
7 | AAAUUAGCAGGAUAUACUAGGGUCCACCGAACUCUGAAAAGACAUGAGGAUCACCCAUGUAGAAGGGCUUCGAA [Atileso] | 30 | 97.6
8 | AACAAGACAGGAUAUACAUGAGGAUCACCCAUGUGAGAAUAAAGUAGCGUAACACAAAGUAGAAGGGUCAUGGA [Ruby 7] | 29.7 | 57.6
9 | AACAAGUGAGGAUAUCGGAAAAGAAAAUAAGAUACACAAAACGAGAAGGCACAUGAGGAUCACCCAUGUAAAUA [JR_Exc004_Sub012] | 35.9 | 41.5
10 | AACAGCACAGGAUAUACAUGAGGAUCACCCAUGUGAGAAUUAAGUGGCGUACCACAAAGUAGAAGGGUGCUGGA [Mat - Exclusion 3 - JL mod - D39] | 35.9 | 203
11 | AACAGGACAGGAUAUACAUGAGGAUCACCCAUGUAGGAACAAAGCAGAGUACCAAACAGUAGAAGGGUCAUGGA [Ruby 28] | 34.2 | 37.2
12 | AACAGGACAGGAUAUACAUGAGGAUCACCCAUGUGAAGAUUAAGAAGAAAACCACAAAGUAGAAGGGUCCUGGA [Ruby 94] | 35.1 | 79.2
13 | AACAGGUCAGGAUAUGUGGAAAAAAUAAAAAAAAUAAAAACACAGAAGGGACAUGAGGAUCACCCAUGUUAACA [May 25] | 36.6 | 38.8
14 | AACAGUACAGGAUAUACAUGAGGAUCACCCAUGUAAAAUAAAUAAAAAUAAAAAGGGAGUAGAAGGGUACUGGA [Moding Maslow revisited (73) 19] | 37.2 | 50.3
15 | AACAGUACAGGAUAUACAUGAGGAUCACCCAUGUGAAAAUUAAGUGGAAAACCACAAGGUAGAAGGGUACUGGA [Mat - Exclusion 3 - Eli mod - D63] | 21.6 | 78.7
16 | AACAGUACAGGAUAUACAUGAGGAUCACCCAUGUGAAAAUUAAGUGGCGAACCACAAAGUAGAAGGGUACUGAA [Mat - Exclusion 3 - Eli mod - D56] | 38.7 | 79.3
17 | AACAGUACAGGAUAUACAUGAGGAUCACCCAUGUGAAAUAAAAGUGGCGUACCACAAAGUAGAAGGGUACUGAA [Mat - Exclusion 3 - JL mod - D27] | 27.1 | 90.5
18 | AACAGUACAGGAUAUACAUGAGGAUCACCCAUGUGAGAAUUAAGUGGAGAACCACAAAGUAGAAGGGUACUGGA [Mat - Exclusion 3 - JL mod - D2] | 37.1 | 250
